Laboratory results taken from patent publication US20250145679A1 (WUXI BIOLOGICS IRELAND, published 2025).

Tests used:
[1] = biological target: T1, human lymphoma (HH) cell line (human); test: binding to HH cells, dose-dependent (FIG. 5); receptor on the cells not named
T1 construct: Cells, not a defined protein

[2] = biological target: T2, IL-2/15Rβ (CD122) ECD (human, UniProt P14784 27-239); test: SPR, Biacore 8K, complex captured on anti-human Fc CM5 chip, receptor ECD-His injected
T2 construct: The SPR text names the analyte only as 'W327151-hPro2.ECD.His'; also called Receptor β; IL-15Rβ
T2 sequence: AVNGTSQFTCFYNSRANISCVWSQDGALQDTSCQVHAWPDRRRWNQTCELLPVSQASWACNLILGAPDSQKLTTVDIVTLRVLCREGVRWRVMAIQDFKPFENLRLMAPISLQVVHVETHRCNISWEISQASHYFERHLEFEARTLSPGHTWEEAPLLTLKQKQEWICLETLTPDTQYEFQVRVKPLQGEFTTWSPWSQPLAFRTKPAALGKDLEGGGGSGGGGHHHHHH
Protocol: IL-15 variants binding affinity to its receptor were detected by SPR using Biacore 8K. Each variant was captured on anti-human Fc immobilized CM5 sensor chip (cytiva). W327151-hPro2.ECD.His at different concentrations were injected over the sensor chip at a flow rate of 30 uL/min for an association phase of 120 s, followed by 120 s dissociation. The chip was then regenerated by 10 mM Glycine-HCl pH 1.5 after each binding cycle.

- EC50 [1]: 91.9 nM
- Kd [2]: 7.9 nM
- koff [2]: 0.00483 s⁻¹
- kon [2]: 612000 M⁻¹ s⁻¹
B1: W327151-TXU1.P1-V0013.uIgG4V322 (Fc fusion)
chain 1: NWVNVISDLKKIEDLIQSMHIDATLYTESDVHPSCKVTAMKCFLLELQVISLESGDASIHDTVENLIILANNSLSSNGNVTESGCKECEELEEKNIKEFLQSFVHIVQMFESKYGPPCPPCPAPEAAGGPSVFLFPPKPKDTLMISRTPEVTCVVVDVSQEDPEVQFNWYVDGVEVHNAKTKPREEQFNSTYRVVSVLTVLHQDWLNGKEYKCKVSNKGLPSSIEKTISKAKGQPREPQVYTLPPCQEEMTKNQVSLWCLVKGFYPSDIAVEWESNGQPENNYKTTPPVLDSDGSFFLYSRLTVDKSRWQEGNVFSCSVMHEALHNHYTQKSLSLSLGK
chain 2: ITCPPPMSVEHADIWVKSYSLYSRERYICNSGFKRKAGTSSLTECVLNKATNVAHWTTPSLKCIRESKYGPPCPPCPAPEAAGGPSVFLFPPKPKDTLMISRTPEVTCVVVDVSQEDPEVQFNWYVDGVEVHNAKTKPREEQFNSTYRVVSVLTVLHQDWLNGKEYKCKVSNKGLPSSIEKTISKAKGQPREPQVCTLPPSQEEMTKNQVSLSCAVKGFYPSDIAVEWESNGQPENNYKTTPPVLDSDGSFFLVSRLTVDKSRWQEGNVFSCSVMHEALHNHYTQKSLSLSLGK
notes: Heterodimeric IL-15/IL-15Ralpha-Fc polypeptide complex; IgG4 Fc with S228P and F234A/L235A, knob-into-hole
